The record followed here is patent publication US20240317847A1 (Bayer, published 2024).

Numbering of substitutions follows the chain as printed. Numbers in names are those of the source.

The chains are these.
B1: TPP-19841 (antibody, V domains shown)
VH: EVQLLESGGGLVQPGGSLRLSCAASGFTFSSYGMHWVRQAPGKGLEWVSVISYDGSYKYYADSVKGRFTISRDNSKNTLYLQMNSLRAEDTAVYYCAAGVPDYWGQGTLVTVSS
VL: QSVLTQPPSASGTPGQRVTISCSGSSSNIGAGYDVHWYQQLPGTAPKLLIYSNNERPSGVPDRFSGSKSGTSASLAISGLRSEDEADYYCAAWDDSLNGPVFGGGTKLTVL
B2: TPP-19845 (antibody, V domains shown)
VH: B1 VH
VL: QSVLTQPPSASGTPGQRVTISCTGSSSNIGAGYDVYWYQQLPGTAPKLLIYSNNERPSGVPDRFSGSKSGTSASLAISGLRSEDEADYYCAAWDDSLNGPVFGGGTKLTVL
B3: TPP-19848 (antibody, V domains shown)
VH: B1 VH
VL: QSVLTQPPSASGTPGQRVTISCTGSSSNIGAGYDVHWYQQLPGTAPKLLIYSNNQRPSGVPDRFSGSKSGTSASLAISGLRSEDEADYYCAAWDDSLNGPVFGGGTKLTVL
B4: TPP-19843 (antibody, V domains shown)
VH: B1 VH
VL: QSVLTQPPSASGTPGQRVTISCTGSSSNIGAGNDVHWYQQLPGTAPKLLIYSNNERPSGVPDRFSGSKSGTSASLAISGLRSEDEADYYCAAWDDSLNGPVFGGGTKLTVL
B5: TPP-19847 (antibody, V domains shown)
VH: B1 VH
VL: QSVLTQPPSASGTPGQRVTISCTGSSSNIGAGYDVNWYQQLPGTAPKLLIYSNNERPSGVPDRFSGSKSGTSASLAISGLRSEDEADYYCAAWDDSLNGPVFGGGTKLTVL
B6: TPP-19842 (antibody, V domains shown)
VH: B1 VH
VL: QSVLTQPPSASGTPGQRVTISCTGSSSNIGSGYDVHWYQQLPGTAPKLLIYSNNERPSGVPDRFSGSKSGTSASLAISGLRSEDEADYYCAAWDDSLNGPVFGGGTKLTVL
B7: TPP-19849 (antibody, V domains shown)
VH: B1 VH
VL: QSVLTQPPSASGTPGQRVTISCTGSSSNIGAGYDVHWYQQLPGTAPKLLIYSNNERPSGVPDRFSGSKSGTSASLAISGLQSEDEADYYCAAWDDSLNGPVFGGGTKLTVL
B8: TPP-19850 (antibody, V domains shown)
VH: B1 VH
VL: B2 VL with Y36H, N98S
B9: TPP-31292 (antibody, human IgG4, V domains shown)
VH: EVQLLESGGGLVQPGGSLRLSCAASGFTFSHYDMHWLRQAPGKGLEWVGVISYDGSNKFYADFVKGRFTISRDNSKNTLYLQMNSLRAEDTAVYYCARTPGSHFDYWGQGTLVTVSS
VL: QSVLTQPPSASGTPGQRVTISCSGSSSNIGNNAVNWYQQLPGTAPKLLIYYDDLLPSGVPDRFSGSKSGTSASLAISGLRSEDEADYYCSAWDDSLNGVVFGGGTKLTVL
notes: consecutive numbering; also called VH-N35H
B10: TPP-31298 (antibody, human IgG4, V domains shown)
VH: B9 VH with H35N
VL: B9 VL with N97S
notes: consecutive numbering; also called VL-N97S
B11: TPP-31295 (antibody, human IgG4, V domains shown)
VH: B9 VH with H35N, F59Y
VL: B9 VL
notes: consecutive numbering; also called VH-F59Y
B12: TPP-31302 (antibody, human IgG4, V domains shown)
VH: B9 VH with H35N, D54E
VL: B9 VL with N97S
notes: consecutive numbering; also called VH-D54E/VL-N97S
B13: TPP-31293 (antibody, human IgG4, V domains shown)
VH: B9 VH with H35N, L37V
VL: B9 VL
notes: consecutive numbering; also called VH-L37V
B14: TPP-31310 (antibody, human IgG4, V domains shown)
VH: B9 VH with H35N, G55S
VL: B9 VL with N97S
notes: consecutive numbering; also called VH-G55S / VL-N97S
B15: TPP-31296 (antibody, human IgG4, V domains shown)
VH: B9 VH with H35N, F63S
VL: B9 VL
notes: consecutive numbering; also called VH-F63S
B16: TPP-31294 (antibody, human IgG4, V domains shown)
VH: B9 VH with H35N, G49A
VL: B9 VL
notes: consecutive numbering; also called VH-G49A
B17: TPP-31300 (antibody, human IgG4, V domains shown)
VH: B9 VH with H35N, D54E
VL: B9 VL
notes: consecutive numbering; also called VH-D54E
B18: TPP-31304 (antibody, human IgG4, V domains shown)
VH: B9 VH with H35N, G55A
VL: B9 VL
notes: consecutive numbering; also called VH-G55A
B19: TPP-31305 (antibody, human IgG4, V domains shown)
VH: B9 VH with H35N, G55A
VL: B9 VL with N97Q
notes: consecutive numbering; also called VH-G55A / VL-N97Q
B20: TPP-31297 (antibody, human IgG4, V domains shown)
VH: B9 VH with H35N
VL: B9 VL with N97Q
notes: consecutive numbering; also called VL-N97Q
B21: TPP-31311 (antibody, human IgG4, V domains shown)
VH: B9 VH with H35N, G55S
VL: B9 VL with G98A
notes: consecutive numbering; also called VH-G55S / VL-G98A
B22: TPP-31299 (antibody, human IgG4, V domains shown)
VH: B9 VH with H35N
VL: B9 VL with G98A
notes: consecutive numbering; also called VL-G98A
B23: TPP-31306 (antibody, human IgG4, V domains shown)
VH: B9 VH with H35N, G55A
VL: B9 VL with N97S
notes: consecutive numbering; also called VH-G55A / VL-N97S
B24: TPP-31309 (antibody, human IgG4, V domains shown)
VH: B9 VH with H35N, G55S
VL: B9 VL with N97Q
notes: consecutive numbering; also called VH-G55S / VL-N97Q
B25: TPP-31303 (antibody, human IgG4, V domains shown)
VH: B9 VH with H35N, D54E
VL: B9 VL with G98A
notes: consecutive numbering; also called VH-D54E / VL-G98A
B26: TPP-31307 (antibody, human IgG4, V domains shown)
VH: B9 VH with H35N, G55A
VL: B9 VL with G98A
notes: consecutive numbering; also called VH-G55A / VL-G98A
B27: TPP-31308 (antibody, human IgG4, V domains shown)
VH: B9 VH with H35N, G55S
VL: B9 VL
notes: consecutive numbering; also called VH-G55S
B28: TPP-31301 (antibody, human IgG4, V domains shown)
VH: B9 VH with H35N, D54E
VL: B9 VL with N97Q
notes: consecutive numbering; also called VH-D54E / VL-N97Q

The target of one assay is T1, human IL-11 (human, UniProt P20809 22-199).
T1 construct: bought from Invigate; also called hIL-11; hIL11
T1 sequence: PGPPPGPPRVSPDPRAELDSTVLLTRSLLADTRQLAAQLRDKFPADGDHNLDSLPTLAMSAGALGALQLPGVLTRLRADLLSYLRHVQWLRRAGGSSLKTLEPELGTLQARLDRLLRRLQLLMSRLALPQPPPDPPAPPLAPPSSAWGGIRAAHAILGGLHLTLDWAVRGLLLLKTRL
The experiment in a line: SPR, antibody captured, IL-11 as analyte. On the procedure:
(§1) Antibodies were captured via anti-mouse Fc IgGs (“Mouse antibody capture kit, Order No. BR100383, Cytiva) covalently amine coupled to a Series S CM5 sensor chip (Cytiva). The amine coupling was carried out according to the manufacturer's instructions using 1-ethyl-3-(3-dimethylaminopropyl) carbodiimide hydrochloride (EDC), N-hydroxysuccinimide (NHS) and ethanolamine HCl, pH 8.5 (“Amine Coupling Kit” BR-1000-50, Cytiva.). Human IL-11 (Invigate, e.g., lot #C121021-19), and murine IL-11 (Invigate, e.g., lot #C210819-09) were used as analytes. […] Based on that experiment an IL-11 concentration range was chosen to optimally determine kinetics and affinity of anti-IL-11 antibodies in multicycle kinetics mode. The sensor surface was regenerated with glycine pH 1.7 after each antigen injection. Obtained sensorgrams were double referenced (subtraction of reference flow cell signal and buffer injection) and were fitted to a 1:1 Langmuir binding model to derive kinetic data using the Biacore T200 Evaluation software or the Biacore Insight software.
(§2) Deviations from closest human germlines in CDR regions and FW regions and potential CMC relevant residues in CDR regions were adjusted by site directed mutagenesis following standard molecular protocols or purchased from DNA synthesis providers. The generated DNA constructs were expressed by transient transfection of mammalian cells and purified as described in Example 15. Antibodies were then tested for human IL-11 and murine IL-11 binding by SPR as described in Example 16.
(Surface plasmon resonance follows binding to a sensor surface in real time, without labels.)
By Kd is commonly meant the free concentration of one partner at which half of the binding sites on the other are occupied at equilibrium, for simple one-to-one binding. Read a low Kd as tighter binding. The molecule B1 came in with a Kd of 6.3 nM.

As for B2, the Kd amounted to 20 nM.

For B3, binding was characterised by a dissociation constant (Kd) of 52 nM.

B4 came in with a Kd of 17 nM.

On to B5, for which binding was put at a Kd of 9 nM.

B6 came in with a Kd of 7.3 nM.

For the molecule B7, binding was characterised by a dissociation constant (Kd) of 5.9 nM.

The molecule B8 displayed a Kd of 6.5 nM.

For the next assay, the target named is T2, murine IL-11 (mouse, UniProt P47873 22-199).
T2 construct: bought from Invigate; also called mIL-11; mIL11
T2 sequence: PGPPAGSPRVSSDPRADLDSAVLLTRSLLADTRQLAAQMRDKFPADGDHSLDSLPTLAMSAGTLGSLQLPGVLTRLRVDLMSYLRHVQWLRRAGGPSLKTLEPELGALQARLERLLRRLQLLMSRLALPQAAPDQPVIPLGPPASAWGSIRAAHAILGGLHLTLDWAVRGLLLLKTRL
The experiment in a line: SPR, antibody captured, IL-11 as analyte. On the procedure:
as §1, §2
For the molecule B1, binding was characterised by a dissociation constant (Kd) of 0.79 nM.

Molecule B2 displayed a Kd of 5 nM.

B3 displayed a Kd of 2.4 nM.

B4: the Kd turned out to be 7.5 nM.

Turning to B5, binding was characterised by a dissociation constant (Kd) of 2.1 nM.

For B6, binding was characterised by a dissociation constant (Kd) of 0.66 nM.

B7: the Kd came to 0.68 nM.

For the molecule B8, the Kd was 1.6 nM.

For the next assay, the target named is T3, murine IL-11 (Invigate, e.g., lot #C210819-09) (mouse, UniProt P47873 22-199).
T3 construct: Bought protein; biotinylated where captured on streptavidin plates; also called mIL-11; mIL11
T3 sequence: T2 sequence
The experiment in a line: SPR, Biacore 8K; antibody captured on anti-human IgG Fc chip, IL-11 analyte 0-50 nM, 1:1 fit. On the procedure: (§3) Antibody binding affinity to hIL-11 (Invigate, Germany, e.g., lot #C121021-19) and mIL-11 (Invigate, Germany, e.g., lot #C210819-09) was detected using Biacore 8K. Each antibody was captured on an anti-human IgG Fc antibody immobilized CM5 sensor chip (GE). hIL-11 and mIL-11 at different concentrations (0, 5, 15.82 and 50 nM) in 1×HBS-EP+ (pH 7.4) (GE healthcare) were injected over the sensor chip at a flow rate of 30 μL/min for an association phase of 120 s, followed by 200 s dissociation phase. The chip was then regenerated by 10 mM Glycine, pH 1.5 after each binding cycle.
(§4) The sensorgrams of blank surface and buffer channel were subtracted from the test sensorgrams. The experimental data was fitted by 1:1 model using Langmiur analysis. Molecular weight of 19.3 kDa was used to calculate the molar concentration of human and mouse IL-11.
Take B9: the dissociation constant Kd is 19 nM.

Take B10: the Kd is 13 nM.

B11 showed a Kd of 33 nM.

B12 gave a Kd of 3.2 nM.

B13 gave a Kd of 12 nM.

B14 registered a Kd of 43 nM.

On to B15, for which the Kd was determined as 12 nM.

For the molecule B16, the Kd was 17 nM.

As to B17, the dissociation constant Kd was found to be 3 nM.

B18 had a Kd of 23 nM.

B19: the Kd came to 25 nM.

In the case of B20, the Kd is 14 nM.

Turning to B21, the Kd was 58 nM.

In turn, B22 returned a Kd of 16 nM.

As to B23, the Kd turned out to be 23 nM.

On to B24, for which the Kd stood at 53 nM.

B25: the Kd is 3.6 nM.

In turn, B26 returned a Kd of 28 nM.

B27 showed a Kd of 47 nM.

In turn, B28 showed a Kd of 2.9 nM.

The target of a further assay is T4, human IL-11 (Invigate, e.g., lot #C121021-19) (human, UniProt P20809 22-199).
T4 construct: Bought protein; also called hIL-11; hIL11
T4 sequence: T1 sequence
The assay is described as above. On the procedure: as §3, §4
B9 came in with a Kd of 11 nM.

The molecule B10 gave a Kd of 9.3 nM.

In turn, B11 had a Kd of 20 nM.

As to B12, binding was put at a Kd of 3.8 nM.

As for B13, the Kd came to 4.8 nM.

For the molecule B14, the Kd turned out to be 40 nM.

The molecule B15 had a Kd of 9.4 nM.

In the case of B16, the Kd was 11 nM.

Regarding B17, the Kd is 3.8 nM.

B18 returned a Kd of 15 nM.

For the molecule B19, the affinity, expressed as Kd, was 15 nM.

Take B20: the Kd was determined as 8.7 nM.

As to B21, the Kd was 87 nM.

For B22, the Kd was 18 nM.

Take B23: binding was characterised by a dissociation constant (Kd) of 15 nM.

Regarding B24, the Kd was 41 nM.

For the molecule B25, the affinity, expressed as Kd, was 6.9 nM.

Turning to B26, the Kd is 31 nM.

Molecule B27 yielded a Kd of 40 nM.

Regarding B28, the Kd turned out to be 3.6 nM.
